{
  "source": "paper PMC11499264",
  "about": "“RNA m5C oxidation by TET2 regulates chromatin state and leukaemogenesis”",
  "molecular_target": "T1, MBD6 MBD domain-MBP-His (Homo sapiens, UniProt Q96DN6 1-100)",
  "T1 sequence": "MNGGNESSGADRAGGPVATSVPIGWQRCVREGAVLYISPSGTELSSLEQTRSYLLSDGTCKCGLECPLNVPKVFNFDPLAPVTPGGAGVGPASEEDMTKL",
  "assay": "EMSA; 0-100 uM protein; preferred over C and hm5C probes; 100 nM FAM probe, 20 mM HEPES pH 7.5, 40 mM KCl, 10 mM MgCl2, 0.1% Triton X-100, 10% glycerol, 1x RNaseOUT, on ice 30 min; 10% TBE gel, 0.5x TBE, 4 C",
  "details": "protein: recombinant; tags: C-terminal MBP-6xHis; label: 5' 6-FAM; single strand",
  "data": [
    {"binder": "TATGACCTGCGGTATGACCTGCGGTATGACCTGCGG (ssDNA, 5-methyl-dC at positions 7, 19, 31)", "note": "[p1-m5C (ss)]", "values": [
      {"measurement": "binding result", "value": "binds"}
    ]}
  ]
}
